The text below walks through data of US20180086841A1.

What all share (test): flow cytometry on CHO-K1 transfectants, left sub-column
Assay [1] has as its target G89A.
For assay [2], the target named is Q15A.
For assay [3], the target named is S63A.
Assay [4] deals with K38A.
For assay [5], the target named is F28A.
For assay [6], the target named is Q91A.
Assay [7] concerns the target D32A.
Assay [8] concerns the target H36A.
In assay [9] the target is P8A.
For assay [10], the target named is I46A.
For assay [11], the target named is Q41A.
Assay [12] has as its target R37A.
In assay [13] the target is D43A.
The target of assay [14] is E9A.
Assay [15] has as its target R10A.

Chain of 1F5-hIgG1 (antibody) (VH): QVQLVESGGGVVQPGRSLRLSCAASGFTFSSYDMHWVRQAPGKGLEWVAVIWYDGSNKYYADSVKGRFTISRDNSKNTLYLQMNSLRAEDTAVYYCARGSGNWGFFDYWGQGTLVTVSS
Chain of 1F5-hIgG1 (antibody) (VL): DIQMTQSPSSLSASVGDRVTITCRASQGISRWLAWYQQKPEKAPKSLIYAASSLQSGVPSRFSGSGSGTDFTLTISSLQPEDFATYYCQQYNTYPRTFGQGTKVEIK
Chain of R10A (receptor chain, as listed by the source R10A R10A limits assumed): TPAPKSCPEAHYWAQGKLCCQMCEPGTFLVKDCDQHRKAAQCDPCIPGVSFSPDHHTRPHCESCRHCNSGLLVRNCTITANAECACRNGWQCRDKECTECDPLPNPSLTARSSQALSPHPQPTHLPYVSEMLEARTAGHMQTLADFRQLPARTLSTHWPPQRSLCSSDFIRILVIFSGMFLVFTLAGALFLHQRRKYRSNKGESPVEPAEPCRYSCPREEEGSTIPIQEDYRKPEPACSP
Chain of G89A (receptor chain, as listed by the source G89A G89A limits assumed): as the sequence (receptor chain, as listed by the source R10A R10A limits assumed) above, with A10R, G89A counted along it
Chain of P8A (receptor chain, as listed by the source limits assumed): as the sequence (receptor chain, as listed by the source R10A R10A limits assumed) above, with P8A, A10R counted along it
Chain of K38A (receptor chain, as listed by the source K38A K38A limits assumed): as the sequence (receptor chain, as listed by the source R10A R10A limits assumed) above, with A10R, K38A counted along it
Chain of D43A (receptor chain, as listed by the source D43A D43A limits assumed): as the sequence (receptor chain, as listed by the source R10A R10A limits assumed) above, with A10R, D43A counted along it
Chain of R37A (receptor chain, as listed by the source R37A R37A limits assumed): as the sequence (receptor chain, as listed by the source R10A R10A limits assumed) above, with A10R, R37A counted along it
Chain of F28A (receptor chain, as listed by the source F28A F28A limits assumed): as the sequence (receptor chain, as listed by the source R10A R10A limits assumed) above, with A10R, F28A counted along it
Chain of I46A (receptor chain, as listed by the source I46A I46A limits assumed): as the sequence (receptor chain, as listed by the source R10A R10A limits assumed) above, with A10R, I46A counted along it
Chain of D32A (receptor chain, as listed by the source D32A D32A limits assumed): as the sequence (receptor chain, as listed by the source R10A R10A limits assumed) above, with A10R, D32A counted along it
Chain of H36A (receptor chain, as listed by the source H36A H36A limits assumed): as the sequence (receptor chain, as listed by the source R10A R10A limits assumed) above, with A10R, H36A counted along it
Chain of E9A (receptor chain, as listed by the source limits assumed): as the sequence (receptor chain, as listed by the source R10A R10A limits assumed) above, with E9A, A10R counted along it
Chain of Q91A (receptor chain, as listed by the source Q91A Q91A limits assumed): as the sequence (receptor chain, as listed by the source R10A R10A limits assumed) above, with A10R, Q91A counted along it
Chain of Q41A (receptor chain, as listed by the source Q41A Q41A limits assumed): as the sequence (receptor chain, as listed by the source R10A R10A limits assumed) above, with A10R, Q41A counted along it
Chain of S63A (receptor chain, as listed by the source S63A S63A limits assumed): as the sequence (receptor chain, as listed by the source R10A R10A limits assumed) above, with A10R, S63A counted along it
Chain of Q15A (receptor chain, as listed by the source Q15A Q15A limits assumed): as the sequence (receptor chain, as listed by the source R10A R10A limits assumed) above, with A10R, Q15A counted along it

Regarding 1F5-hIgG1 (antibody), the binding, WT hCD27 = 100 (GM FITC) was found to be 103% in assay [1]; 99% in [2]; 144% in assay [3]; 96.5% in [4]; 113% in assay [5]; 156% in assay [6]. In addition, the binding, WT hCD27 = 100 (GM FITC) in assay [7] came out at 115%; in assay [8], 116%; in [9] it was 82.5%; in assay [10], 128%; in assay [11], 104%; in assay [12], 109%. Moreover, the binding, WT hCD27 = 100 (GM FITC) in [13] was 202%; in [14], 95.4%; in assay [15], 105%.
